The values below are quoted from earlier work in patent US10954506B2 (priority 2013, dated 2021).

The conditions of the data set: in vivo, iv.

B1: BChE: Butyrylcholinesterase, natural stoichiometric bioscavenger found as soluble protein in human plasma (protein, UniProt P06276 29-602, looked up)
Cholinesterase: EDDIIIATKNGKVRGMNLTVFGGTVTAFLGIPYAQPPLGRLRFKKPQSLTKWSDIWNATKYANSCCQNIDQSFPGFHGSEMWNPNTDLSEDCLYLNVWIPAPKPKNATVLIWIYGGGFQTGTSSLHVYDGKFLARVERVIVVSMNYRVGALGFLALPGNPEAPGNMGLFDQQLALQWVQKNIAAFGGNPKSVTLFGESAGAASVSLHLLSPGSHSLFTRAILQSGSFNAPWAVTSLYEARNRTLNLAKLTGCSRENETEIIKCLRNKDPQEILLNEAFVVPYGTPLSVNFGPTVDGDFLTDMPDILLELGQFKKTQILVGVNKDEGTAFLVYGAPGFSKDNNSIITRKEFQEGLKIFFPGVSEFGKESILFHYTDWVDDQRPENYREALGDVVGDYNFICPALEFTKKFSEWGNNAFFYYFEHRSSKLPWPEWMGVMHGYEIEFVFGLPLERRDNYTKAEEILSRSIVKRWANFAKYGNPNETQNNSTSWPVFKSTEQKYLTLNTESTRIMTKLRAQQCRFWTSFFPKVLEMTGNIDEAEWEWKAGFHRWNNYMMDWKNQFNDYTSKKESCVGL
For B1, the effective dose result is given as “about 3 mg/kg”.
